{"source": "paper PMC9987997", "origin": "cited, not measured here", "key": {"[1]": {"biological_target": "Scribble PDZ1 (Homo sapiens) (UniProt Q14160)", "assay": "ITC"}, "[2]": {"biological_target": "Scribble PDZ4 (Homo sapiens) (UniProt Q14160)", "assay": "ITC"}}}
{"substance": "NS1 (ESEV PBM) PBM (from UniProt Q8QPI8)", "values": [{"measurement": "Kd", "setting": "[1]", "value": 21.4, "unit": "µM"}, {"measurement": "Kd", "setting": "[2]", "value": 12.2, "unit": "µM"}]}
